Data reported in PMC4476739 (PLoS ONE, 2015).

Experiments:
Assay in all cases: BLI; fortéBio Octet Red384; RSV F variant captured on motavizumab IgG loaded on anti-human Fc probes; Fab in solution 0.007 to 0.5 μM; 30°C; PBS + 1% BSA; 1:1 fit
Conditions in all cases: both partners purified
[1] = biological target: T1, DS-Cav1 2-AB, foldon removed (Human respiratory syncytial virus A, …, S155C | S290C | S190F | V207L | L512C (stands in the printed letters) | L513C …)
T1 construct: RSV F glycoprotein, F1 subunit from its N-terminus to residue 511, with the DS (S155C-S290C) and Cav1 (S190F, V207L) mutations; RSV F α10 helix from residue 512 with rings A and B; Gly-Gly linker and LVPR of the thrombin site, left after cleavage; trimeric species purified after foldon removal; also called Rings AB; rings AB without foldon; source: Expi293F, transient transfection, purified from …

[2] = biological target: T2, DS-Cav1 3-BCD, foldon removed (Human respiratory syncytial virus A, …, S155C | S290C | S190F | V207L | G519C (stands in the printed letters) | K520C …)
T2 construct: RSV F glycoprotein, F1 subunit from its N-terminus to residue 511, with the DS (S155C-S290C) and Cav1 (S190F, V207L) mutations; RSV F α10 helix from residue 512 with rings B and C; added stretch that duplicates part of the coiled-coil; ring D at 533C-534C; Gly-Gly linker and LVPR of the thrombin site, left after cleavage; trimeric species purified after foldon removal; also called rings BCD …

[3] = biological target: T3, DS-Cav1 4-ABCD, foldon removed (Human respiratory syncytial virus A, …, S155C | S290C | S190F | V207L | L512C (stands in the printed letters) | L513C …)
T3 construct: RSV F glycoprotein, F1 subunit from its N-terminus to residue 511, with the DS (S155C-S290C) and Cav1 (S190F, V207L) mutations; RSV F α10 helix from residue 512 with rings A, B and C; added stretch that duplicates part of the coiled-coil; ring D at 533C-534C; Gly-Gly linker and LVPR of the thrombin site, left after cleavage; trimeric species purified after foldon removal; also called Rings ABCD; …

[4] = biological target: T4, DS-Cav1 5-ABCDE, foldon removed (Human respiratory syncytial virus A, …, S155C | S290C | S190F | V207L | L512C (stands in the printed letters) | L513C …)
T4 construct: RSV F glycoprotein, F1 subunit from its N-terminus to residue 511, with the DS (S155C-S290C) and Cav1 (S190F, V207L) mutations; RSV F α10 helix from residue 512 with rings A, B and C; added stretch based on the α10 heptad repeat; ring D at 533C-534C and ring E at 540C-541C; Gly-Gly linker and LVPR of the thrombin site, left after cleavage; trimeric species purified after foldon removal; also …

[5] = biological target: T5, DS-Cav1 4-BCDE, foldon removed (Human respiratory syncytial virus A, …, S155C | S290C | S190F | V207L | G519C (stands in the printed letters) | K520C …)
T5 construct: RSV F glycoprotein, F1 subunit from its N-terminus to residue 511, with the DS (S155C-S290C) and Cav1 (S190F, V207L) mutations; RSV F α10 helix from residue 512 with rings B and C; added stretch based on the α10 heptad repeat; ring D at 533C-534C and ring E at 540C-541C; Gly-Gly linker and LVPR of the thrombin site, left after cleavage; trimeric species purified after foldon removal; also called …

B1: D25 antigen binding fragment (Fab) (Fab, V domains shown)
VH: QVQLVQSGAEVKKPGSSVMVSCQASGGPLRNYIINWLRQAPGQGPEWMGGIIPVLGTVHYAPKFQGRVTITADESTDTAYIHLISLRSEDTAMYYCATETALVVSTTYLPHYFDNWGQGTLVTVSS
VL: DIQMTQSPSSLSAAVGDRVTITCQASQDIVNYLNWYQQKPGKAPKLLIYVASNLETGVPSRFSGSGSGTDFSLTISSLQPEDVATYYCQQYDNLPLTFGGGTKVEIK
notes: Fab in solution in the Octet assays; also called site Ø-specific antibody D25
Kd [1]: 0.21 nM | Kd [2]: 0.38 nM | Kd [3]: 0.32 nM | Kd [4]: 0.47 nM | Kd [5]: 0.33 nM
